Results reported in the supplement of paper PMC10065799, “High-throughput profiling of sequence recognition by tyrosine kinases and SH2 domains using bacterial peptide display” (eLife, 2023).

Legend:
Fyn = Fyn (UniProt P06241); assay: phosphorylation enrichment, bacterial display (enrichment ratio); higher = better substrate or ligand; peptides without Tyr show the background
MERTK = MERTK (UniProt Q12866); assay: as above
EPHB1 = EPHB1 (UniProt P54762); assay: as above
Fer (mouse) = assay: as above
EPHB2 = EPHB2 (UniProt P29323); assay: as above
Fes = Fes (UniProt P07332); assay: as above
c-Abl (mouse) = assay: as above
FGFR1 = FGFR1 (UniProt P11362); assay: as above
c-Src = assay: as above
Jak2 = Jak2 (UniProt O60674); assay: as above
Hck = Hck (UniProt P08631); assay: as above
AncSZ = assay: as above
FGFR3 = FGFR3 (UniProt P22607); assay: as above
Grb2 SH2 = Grb2 SH2 (UniProt P62993); assay: SH2 binding enrichment of the phosphorylated peptide, bacterial display (enrichment ratio); higher = better substrate or ligand; peptides without Tyr show the background
c-Src SH2 = assay: as above
SHP2-C SH2 = assay: as above
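For SH2 binding enrichment of the phosphorylated peptide, bacterial display in this document: peptide library displayed on the E. coli surface as eCPX fusions, selected cells deep-sequenced, score is each peptide's frequency after selection divided by its frequency in the input.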
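For phosphorylation enrichment, bacterial display in this document: 11-residue human phosphosite peptides and single-mutation variants displayed on the E. coli surface, counted by deep sequencing, each peptide's frequency after selection divided by its frequency in the unselected input library; frequency after pTyr selection over input frequency; kinase dosed for 20-30% of maximal phosphorylation in three min.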

FGFR3, sequence (P22607 whole entry, looked up): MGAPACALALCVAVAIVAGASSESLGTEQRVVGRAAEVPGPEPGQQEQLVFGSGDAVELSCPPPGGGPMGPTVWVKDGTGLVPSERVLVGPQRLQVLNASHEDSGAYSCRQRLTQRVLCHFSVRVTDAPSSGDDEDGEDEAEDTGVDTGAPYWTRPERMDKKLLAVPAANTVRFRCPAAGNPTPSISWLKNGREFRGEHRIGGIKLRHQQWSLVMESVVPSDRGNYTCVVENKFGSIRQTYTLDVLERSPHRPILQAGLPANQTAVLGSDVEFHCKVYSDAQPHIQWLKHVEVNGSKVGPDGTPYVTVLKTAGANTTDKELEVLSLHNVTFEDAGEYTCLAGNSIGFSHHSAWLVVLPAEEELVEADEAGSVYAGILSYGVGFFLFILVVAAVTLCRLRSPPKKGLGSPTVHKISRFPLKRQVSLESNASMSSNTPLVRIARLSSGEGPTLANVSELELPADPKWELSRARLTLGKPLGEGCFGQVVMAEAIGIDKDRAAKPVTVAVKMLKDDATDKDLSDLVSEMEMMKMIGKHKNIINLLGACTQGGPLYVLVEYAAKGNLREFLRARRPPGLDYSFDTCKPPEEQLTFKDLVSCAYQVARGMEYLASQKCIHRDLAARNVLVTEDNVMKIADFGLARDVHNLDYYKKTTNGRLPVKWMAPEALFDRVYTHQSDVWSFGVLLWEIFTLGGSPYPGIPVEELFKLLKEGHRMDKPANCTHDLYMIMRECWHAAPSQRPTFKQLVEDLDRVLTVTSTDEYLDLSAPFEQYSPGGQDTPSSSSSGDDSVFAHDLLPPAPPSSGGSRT
Jak2, sequence (O60674 whole entry, looked up): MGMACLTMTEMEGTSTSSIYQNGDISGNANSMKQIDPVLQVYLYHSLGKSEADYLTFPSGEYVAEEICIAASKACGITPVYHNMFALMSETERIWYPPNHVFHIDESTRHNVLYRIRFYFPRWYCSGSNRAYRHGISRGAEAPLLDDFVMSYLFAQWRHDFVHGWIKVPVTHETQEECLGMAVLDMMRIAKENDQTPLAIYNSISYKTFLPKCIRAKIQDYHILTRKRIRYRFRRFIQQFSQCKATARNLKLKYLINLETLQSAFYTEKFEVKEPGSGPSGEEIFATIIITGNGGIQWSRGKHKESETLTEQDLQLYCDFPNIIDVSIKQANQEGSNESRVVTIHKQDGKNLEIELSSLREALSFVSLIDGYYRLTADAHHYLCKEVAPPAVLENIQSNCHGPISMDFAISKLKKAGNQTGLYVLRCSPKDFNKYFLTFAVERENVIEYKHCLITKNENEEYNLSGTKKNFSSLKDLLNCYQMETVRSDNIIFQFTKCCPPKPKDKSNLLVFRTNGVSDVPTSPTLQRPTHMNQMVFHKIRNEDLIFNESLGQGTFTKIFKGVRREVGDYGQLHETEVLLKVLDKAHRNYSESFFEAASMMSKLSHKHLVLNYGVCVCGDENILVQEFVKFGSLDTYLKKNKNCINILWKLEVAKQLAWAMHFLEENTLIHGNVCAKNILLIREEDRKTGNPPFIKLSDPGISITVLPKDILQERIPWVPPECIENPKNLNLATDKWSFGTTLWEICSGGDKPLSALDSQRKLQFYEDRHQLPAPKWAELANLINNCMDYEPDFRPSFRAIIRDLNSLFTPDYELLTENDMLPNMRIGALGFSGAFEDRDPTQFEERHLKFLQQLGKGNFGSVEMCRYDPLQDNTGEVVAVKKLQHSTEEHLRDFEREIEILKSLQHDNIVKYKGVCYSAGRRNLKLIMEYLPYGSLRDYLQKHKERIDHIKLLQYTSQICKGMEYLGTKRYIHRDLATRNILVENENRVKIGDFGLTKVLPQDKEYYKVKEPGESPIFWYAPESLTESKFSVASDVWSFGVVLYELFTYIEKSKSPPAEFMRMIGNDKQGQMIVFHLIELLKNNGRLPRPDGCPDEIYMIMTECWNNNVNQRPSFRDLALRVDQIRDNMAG
MERTK, sequence (Q12866 whole entry, looked up): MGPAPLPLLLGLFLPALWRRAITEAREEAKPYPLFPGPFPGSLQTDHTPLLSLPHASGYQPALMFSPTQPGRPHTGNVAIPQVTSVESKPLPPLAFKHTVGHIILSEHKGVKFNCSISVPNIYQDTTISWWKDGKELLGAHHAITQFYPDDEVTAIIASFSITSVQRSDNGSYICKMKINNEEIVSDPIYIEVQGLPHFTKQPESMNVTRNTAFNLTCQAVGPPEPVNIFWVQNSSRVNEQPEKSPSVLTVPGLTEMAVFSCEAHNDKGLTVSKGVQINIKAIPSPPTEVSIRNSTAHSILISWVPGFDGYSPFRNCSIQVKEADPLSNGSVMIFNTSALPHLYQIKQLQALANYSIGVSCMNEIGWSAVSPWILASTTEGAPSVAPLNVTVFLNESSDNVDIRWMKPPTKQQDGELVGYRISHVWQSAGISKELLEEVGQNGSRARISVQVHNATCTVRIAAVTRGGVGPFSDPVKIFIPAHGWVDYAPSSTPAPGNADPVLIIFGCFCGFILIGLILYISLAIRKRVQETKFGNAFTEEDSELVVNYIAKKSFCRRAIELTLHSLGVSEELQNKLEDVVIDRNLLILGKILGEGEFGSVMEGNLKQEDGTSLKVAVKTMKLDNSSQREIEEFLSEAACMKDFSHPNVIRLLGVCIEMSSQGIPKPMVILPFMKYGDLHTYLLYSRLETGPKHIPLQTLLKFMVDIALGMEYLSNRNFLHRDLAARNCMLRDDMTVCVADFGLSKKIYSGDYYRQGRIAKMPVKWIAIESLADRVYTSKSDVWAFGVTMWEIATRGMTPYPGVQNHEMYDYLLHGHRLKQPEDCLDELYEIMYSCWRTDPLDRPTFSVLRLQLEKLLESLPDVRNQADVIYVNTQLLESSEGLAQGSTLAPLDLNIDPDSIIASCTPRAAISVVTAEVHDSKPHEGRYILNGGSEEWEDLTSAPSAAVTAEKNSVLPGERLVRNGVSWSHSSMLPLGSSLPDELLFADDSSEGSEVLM
EPHB2, sequence (P29323 whole entry, looked up): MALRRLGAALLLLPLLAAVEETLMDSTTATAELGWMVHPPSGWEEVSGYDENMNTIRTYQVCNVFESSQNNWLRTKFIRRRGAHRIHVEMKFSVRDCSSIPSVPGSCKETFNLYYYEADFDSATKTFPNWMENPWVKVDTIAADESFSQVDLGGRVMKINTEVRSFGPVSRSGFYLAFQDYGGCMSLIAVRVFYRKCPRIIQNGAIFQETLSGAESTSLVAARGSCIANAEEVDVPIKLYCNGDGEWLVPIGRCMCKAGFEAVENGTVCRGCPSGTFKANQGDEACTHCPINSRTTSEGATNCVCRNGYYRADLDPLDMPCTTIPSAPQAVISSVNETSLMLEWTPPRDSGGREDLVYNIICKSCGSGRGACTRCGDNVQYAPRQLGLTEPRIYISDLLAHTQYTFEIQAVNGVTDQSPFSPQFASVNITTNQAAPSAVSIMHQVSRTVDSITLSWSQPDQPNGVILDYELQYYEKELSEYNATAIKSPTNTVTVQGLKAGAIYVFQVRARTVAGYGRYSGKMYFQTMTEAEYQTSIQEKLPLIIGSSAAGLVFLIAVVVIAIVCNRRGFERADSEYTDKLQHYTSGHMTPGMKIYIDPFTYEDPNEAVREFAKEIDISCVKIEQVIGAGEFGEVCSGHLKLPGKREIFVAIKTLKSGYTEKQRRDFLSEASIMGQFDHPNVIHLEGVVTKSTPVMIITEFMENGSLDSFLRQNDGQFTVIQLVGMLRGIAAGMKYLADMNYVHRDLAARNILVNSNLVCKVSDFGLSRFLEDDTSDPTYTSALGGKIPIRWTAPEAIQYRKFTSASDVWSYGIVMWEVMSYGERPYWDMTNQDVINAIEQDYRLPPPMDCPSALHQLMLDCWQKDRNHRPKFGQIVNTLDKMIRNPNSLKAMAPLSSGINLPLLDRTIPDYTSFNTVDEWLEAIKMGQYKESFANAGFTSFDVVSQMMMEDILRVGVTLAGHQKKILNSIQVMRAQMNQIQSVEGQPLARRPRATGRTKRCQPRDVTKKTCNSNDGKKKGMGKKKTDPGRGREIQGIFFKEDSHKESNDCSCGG
Hck, sequence (P08631 whole entry, looked up): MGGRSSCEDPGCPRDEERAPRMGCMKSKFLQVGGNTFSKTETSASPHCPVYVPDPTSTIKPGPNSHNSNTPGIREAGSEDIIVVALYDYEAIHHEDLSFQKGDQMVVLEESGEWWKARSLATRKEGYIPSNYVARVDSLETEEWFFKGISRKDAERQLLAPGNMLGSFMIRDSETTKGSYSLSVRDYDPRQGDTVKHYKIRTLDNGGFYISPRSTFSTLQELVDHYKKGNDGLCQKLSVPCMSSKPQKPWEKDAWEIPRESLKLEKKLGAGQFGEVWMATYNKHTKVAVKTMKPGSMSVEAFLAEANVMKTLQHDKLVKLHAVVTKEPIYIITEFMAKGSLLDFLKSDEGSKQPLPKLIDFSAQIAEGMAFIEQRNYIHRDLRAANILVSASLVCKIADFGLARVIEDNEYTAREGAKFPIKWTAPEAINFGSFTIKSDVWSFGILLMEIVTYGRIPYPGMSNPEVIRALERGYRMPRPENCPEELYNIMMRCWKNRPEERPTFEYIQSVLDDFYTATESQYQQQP
Grb2 SH2, sequence (P62993 whole entry, looked up): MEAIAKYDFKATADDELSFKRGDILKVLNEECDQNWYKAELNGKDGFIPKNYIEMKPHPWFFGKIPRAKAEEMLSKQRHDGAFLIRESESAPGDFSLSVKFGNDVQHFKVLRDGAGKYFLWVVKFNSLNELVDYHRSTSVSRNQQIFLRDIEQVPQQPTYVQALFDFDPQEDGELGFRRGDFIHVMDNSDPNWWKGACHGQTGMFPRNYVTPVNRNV

Row | Sequence | phosphorylation enrichment (Fyn) | phosphorylation enrichment (MERTK) | phosphorylation enrichment (EPHB1) | phosphorylation enrichment (Fer (mouse)) | phosphorylation enrichment (EPHB2) | phosphorylation enrichment (Fes) | phosphorylation enrichment (c-Abl (mouse)) | phosphorylation enrichment (FGFR1) | phosphorylation enrichment (c-Src) | phosphorylation enrichment (Jak2) | phosphorylation enrichment (Hck) | phosphorylation enrichment (AncSZ) | phosphorylation enrichment (FGFR3) | SH2 binding enrichment (Grb2 SH2) | SH2 binding enrichment (c-Src SH2) | SH2 binding enrichment (SHP2-C SH2)
1 | ALMGPYHGQVL [HADHA_Y343_L342P] | 0.336 | 0.335 | 0.366 | 0.336 | 0.41 | 0.537 | 0.61 | 0.411 | 0.46 | 0.485 | 0.384 | 0.544 | 0.436 | 0.77 | 0.433 | 1.03
2 | VDSAHYQLLET [DTX3L_Y385_K386Q] | 0.588 | 1.13 | 0.813 | 4.07 | 0.616 | 0.909 | 0.728 | 1.14 | 0.705 | 0.891 | 0.709 | 0.946 | 0.952 | 0.677 | 6.34 | 0.541
3 | ETDTRYFDEEF [AKT1_Y437] | 0.544 | 0.527 | 0.633 | 0.563 | 0.714 | 1.29 | 0.875 | 0.567 | 0.679 | 1.37 | 0.665 | 1.32 | 0.81 | 0.902 | 0.775 | 0.916
4 | GESKDYALHAG [SVIL_Y185_V189A] | 0.421 | 0.36 | 0.479 | 0.366 | 0.527 | 0.566 | 0.488 | 0.365 | 0.413 | 0.493 | 0.38 | 0.548 | 0.455 | 0.78 | 0.521 | 0.739
5 | IIGNGYFFRVF [MYBPC3_Y1135_YF] | 0.258 | 0.28 | 0.433 | 0.394 | 0.461 | 0.98 | 0.692 | 0.334 | 0.288 | 0.956 | 0.33 | 0.844 | 0.538 | 0.815 | 0.453 | 0.766
6 | FSGLAYTMERS [GLUD1_Y512_H507Y_YF] | 0.544 | 0.364 | 0.492 | 0.361 | 0.465 | 0.858 | 0.613 | 0.455 | 0.935 | 0.7 | 0.486 | 0.822 | 0.63 | 0.856 | 0.5 | 0.838
7 | TVLEPYTDPYY [ZC3H18_Y367_A368T] | 0.656 | 0.524 | 0.611 | 0.433 | 0.541 | 0.857 | 0.568 | 1 | 0.845 | 0.805 | 0.649 | 1.2 | 0.797 | 0.516 | 1.28 | 0.456
8 | LTELGYSFVTT [ACTA1_Y200_R198L] | 1.88 | 1.12 | 1.44 | 2.05 | 1.46 | 3.61 | 1.51 | 5.04 | 1.11 | 1.93 | 1.9 | 3.14 | 3.42 | 0.797 | 8.8 | 3.2
9 | AQRKLYRNVML [ZNF569_Y33] | 0.41 | 0.47 | 0.412 | 0.373 | 0.287 | 0.583 | 0.482 | 0.4 | 0.535 | 0.629 | 0.481 | 0.566 | 0.372 | 1.26 | 0.728 | 0.82
10 | VIKDKYPKARF [APTX_Y209_YF] | 0.294 | 0.374 | 0.339 | 0.288 | 0.297 | 0.672 | 0.646 | 0.425 | 0.408 | 0.772 | 0.332 | 0.455 | 0.504 | 1.15 | 1.04 | 1.25
11 | KVMANYMFKAG [MAML2_Y513_YF] | 0.344 | 0.432 | 0.448 | 0.394 | 0.744 | 0.675 | 0.556 | 0.412 | 0.414 | 0.519 | 0.342 | 0.638 | 0.418 | 0.934 | 0.651 | 0.697
12 | WASQRYGRELR [BAD_Y110_A107S] | 0.624 | 0.516 | 0.484 | 0.332 | 0.538 | 0.84 | 0.728 | 0.39 | 0.501 | 0.644 | 0.4 | 0.621 | 0.414 | 0.861 | 0.324 | 0.504
13 | IENKLCGMSDP [RET_Y1062_Y1062C] | 0.522 | 0.428 | 0.693 | 0.536 | 0.652 | 1.09 | 0.625 | 0.687 | 0.412 | 0.775 | 0.562 | 0.987 | 0.774 | 0.656 | 0.476 | 0.777
14 | IGCHAYGDQYR [IDH1_Y135_R132C] | 0.424 | 0.384 | 0.593 | 0.569 | 0.556 | 1.19 | 0.796 | 0.634 | 0.493 | 0.979 | 0.5 | 1.04 | 0.741 | 0.687 | 0.551 | 0.59
15 | CTTIHYNFMCN [TP53_Y234_Y236F] | 0.436 | 0.405 | 0.428 | 0.516 | 0.485 | 0.923 | 0.661 | 0.509 | 0.487 | 0.824 | 0.456 | 0.861 | 0.645 | 1.8 | 1.84 | 1.93
16 | LPEENYQVLCF [ARHGAP1_Y365_R369C] | 1.64 | 3.58 | 9.13 | 7.5 | 5.96 | 3.56 | 3.14 | 8.04 | 5.73 | 5.17 | 4.43 | 3.61 | 5.59 | 0.739 | 0.82 | 0.49
